In one assay the target is Ddi1 (UniProt P40087). The experiment in a line: anti-Flag affinity purification of 26S proteasome, immunoblot densitometry. Conditions: no detergent in binding; normalized to Rpn11FLAG; parent: est. 100; read off a plot.
A further assay addresses Rad23 (UniProt P32628). The description is as above. Conditions: no detergent in binding; normalized to Rpn11FLAG; parent: est. 100; read off a plot.
The next assay addresses Dsk2 (UniProt P48510). The assay is described as above. As to conditions: no detergent in binding; normalized to Rpn11FLAG; parent: est. 100; read off a plot.
Sequence of UniProt P48510 (P48510 whole entry, looked up): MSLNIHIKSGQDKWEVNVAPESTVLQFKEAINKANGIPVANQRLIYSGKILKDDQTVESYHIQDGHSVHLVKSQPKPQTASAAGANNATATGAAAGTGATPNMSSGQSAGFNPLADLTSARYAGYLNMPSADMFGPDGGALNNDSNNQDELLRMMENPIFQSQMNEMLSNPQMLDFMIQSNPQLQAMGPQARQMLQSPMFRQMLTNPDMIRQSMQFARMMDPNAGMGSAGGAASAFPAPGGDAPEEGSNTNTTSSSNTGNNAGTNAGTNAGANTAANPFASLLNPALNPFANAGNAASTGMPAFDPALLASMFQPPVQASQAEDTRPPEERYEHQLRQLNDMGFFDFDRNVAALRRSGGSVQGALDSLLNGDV
For another assay, the target named is Ubp6 (UniProt P43593). Described as above. As to conditions: no detergent in binding; normalized to Rpn11FLAG; parent: est. 100; read off a plot.
The target of assay [1] is 26S proteasome from rpn13Δ cells (Rpn11-Flag) (S. cerevisiae) (UniProt P38764). The experiment in a line: affinity purification with mass spectrometry; SILAC: rpn13Δ cells heavy, rpn13Δ rpn1-D517A cells light, mixed 1:1 before lysis; proteasomes purified on anti-Flag resin, eluted in 8 M urea.
Sequence of UniProt P38764 (P38764 whole entry, looked up, stated change not applied): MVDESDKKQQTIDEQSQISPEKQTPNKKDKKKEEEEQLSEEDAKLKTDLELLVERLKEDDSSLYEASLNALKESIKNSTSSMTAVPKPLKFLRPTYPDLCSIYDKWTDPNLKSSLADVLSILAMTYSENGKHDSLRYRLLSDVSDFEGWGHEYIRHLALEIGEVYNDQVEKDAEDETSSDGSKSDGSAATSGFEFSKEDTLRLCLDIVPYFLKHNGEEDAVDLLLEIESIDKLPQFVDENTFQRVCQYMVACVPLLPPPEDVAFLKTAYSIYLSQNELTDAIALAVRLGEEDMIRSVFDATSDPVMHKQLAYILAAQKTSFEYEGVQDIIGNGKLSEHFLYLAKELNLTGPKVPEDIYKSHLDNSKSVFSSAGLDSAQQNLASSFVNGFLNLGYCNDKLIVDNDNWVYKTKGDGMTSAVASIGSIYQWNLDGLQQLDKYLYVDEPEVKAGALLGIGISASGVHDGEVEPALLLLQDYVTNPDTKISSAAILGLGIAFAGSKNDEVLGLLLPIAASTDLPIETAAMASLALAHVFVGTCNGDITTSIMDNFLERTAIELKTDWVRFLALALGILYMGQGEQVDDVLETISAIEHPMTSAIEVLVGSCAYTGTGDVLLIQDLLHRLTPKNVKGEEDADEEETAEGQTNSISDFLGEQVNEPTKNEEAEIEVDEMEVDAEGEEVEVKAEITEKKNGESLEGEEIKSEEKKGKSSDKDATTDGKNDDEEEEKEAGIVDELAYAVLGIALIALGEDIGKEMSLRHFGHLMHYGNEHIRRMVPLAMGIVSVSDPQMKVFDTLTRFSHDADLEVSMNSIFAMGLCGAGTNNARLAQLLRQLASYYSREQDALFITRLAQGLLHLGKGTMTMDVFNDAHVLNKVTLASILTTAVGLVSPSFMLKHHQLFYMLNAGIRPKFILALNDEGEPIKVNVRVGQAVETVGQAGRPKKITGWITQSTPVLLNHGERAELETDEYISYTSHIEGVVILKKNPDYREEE

Sequence of UniProt P40087 (P40087 whole entry, looked up): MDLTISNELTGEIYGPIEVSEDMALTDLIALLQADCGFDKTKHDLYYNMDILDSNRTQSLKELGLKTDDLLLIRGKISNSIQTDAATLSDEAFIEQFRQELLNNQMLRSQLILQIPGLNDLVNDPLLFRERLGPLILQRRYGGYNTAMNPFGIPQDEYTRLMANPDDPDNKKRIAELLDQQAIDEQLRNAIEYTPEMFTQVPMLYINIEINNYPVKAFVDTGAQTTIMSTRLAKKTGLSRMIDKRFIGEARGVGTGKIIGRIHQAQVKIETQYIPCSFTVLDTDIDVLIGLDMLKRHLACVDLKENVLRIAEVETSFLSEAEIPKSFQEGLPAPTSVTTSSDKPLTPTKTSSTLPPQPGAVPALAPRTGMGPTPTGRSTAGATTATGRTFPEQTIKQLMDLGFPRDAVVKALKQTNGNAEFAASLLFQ

Regarding “26S proteasome from rpn13Δ cells (Rpn11-Flag) (from UniProt P38764;P43588) K484A”, the percent of parent (% Protein Relative to WT) in the assay with Ddi1 was 80; with Rad23 it was 95; with Dsk2, 86; in the assay with Ubp6 it was 110.
As for “26S proteasome from rpn13Δ cells (Rpn11-Flag) (from UniProt P38764;P43588) D517A”, the percent of parent (% Protein Relative to WT) with Ddi1 was determined as 29; in the assay with Rad23 it was 76; in the assay with Dsk2, 61; in the assay with Ubp6 it was 110.
“Ubp6 (from UniProt P43593 1-499) (enzyme)”: the SILAC H/L ratio (rpn13Δ proteasomes, heavy, over rpn13Δ rpn1-D517A proteasomes, light) in assay [1] amounted to 0.98.

B1: Rad23 (natural protein)
chain: MVSLTFKNFKKEKVPLDLEPSNTILETKTKLAQSISCEESQIKLIYSGKVLQDSKTVSECGLKDGDQVVFMVSQKKSTKTKVTEPPIAPESATTPGRENSTEASPSTDASAAPAATAPEGSQPQEEQTATTERTESASTPGFVVGTERNETIERIMEMGYQREEVERALRAAFNNPDRAVEYLLMGIPENLRQPEPQQQTAAAAEQPSTAATTAEQPAEDDLFAQAAQGGNASSGALGTTGGATDAAQGGPPGSIGLTVEDLLSLRQVVSGNPEALAPLLENISARYPQLREHIMANPEVFVSMLLEAVGDNMQDVMEGADDMVEGEDIEVTGEAAAAGLGQGEGEGSFQVDYTPEDDQAISRLCELGFERDLVIQVYFACDKNEEAAANILFSDHAD
Regarding B1, the SILAC H/L ratio (rpn13Δ proteasomes, heavy, over rpn13Δ rpn1-D517A proteasomes, light) in assay [1] was determined as 0.9.

The values are drawn from article PMC3126750.
